The results in this text go back to patent US20260042848A1.

The target in the test is native human AXL on non-transfected human cell lines (A-431, A-549, HeLa, MDA-MB-231, NCI-H1299) (human) (UniProt P30530). In words: cell-based or functional assay.
Chain of native human AXL on non-transfected human cell lines (A-431, A-549, HeLa, MDA-MB-231, NCI-H1299) (human) (P30530 26-894 limits assumed): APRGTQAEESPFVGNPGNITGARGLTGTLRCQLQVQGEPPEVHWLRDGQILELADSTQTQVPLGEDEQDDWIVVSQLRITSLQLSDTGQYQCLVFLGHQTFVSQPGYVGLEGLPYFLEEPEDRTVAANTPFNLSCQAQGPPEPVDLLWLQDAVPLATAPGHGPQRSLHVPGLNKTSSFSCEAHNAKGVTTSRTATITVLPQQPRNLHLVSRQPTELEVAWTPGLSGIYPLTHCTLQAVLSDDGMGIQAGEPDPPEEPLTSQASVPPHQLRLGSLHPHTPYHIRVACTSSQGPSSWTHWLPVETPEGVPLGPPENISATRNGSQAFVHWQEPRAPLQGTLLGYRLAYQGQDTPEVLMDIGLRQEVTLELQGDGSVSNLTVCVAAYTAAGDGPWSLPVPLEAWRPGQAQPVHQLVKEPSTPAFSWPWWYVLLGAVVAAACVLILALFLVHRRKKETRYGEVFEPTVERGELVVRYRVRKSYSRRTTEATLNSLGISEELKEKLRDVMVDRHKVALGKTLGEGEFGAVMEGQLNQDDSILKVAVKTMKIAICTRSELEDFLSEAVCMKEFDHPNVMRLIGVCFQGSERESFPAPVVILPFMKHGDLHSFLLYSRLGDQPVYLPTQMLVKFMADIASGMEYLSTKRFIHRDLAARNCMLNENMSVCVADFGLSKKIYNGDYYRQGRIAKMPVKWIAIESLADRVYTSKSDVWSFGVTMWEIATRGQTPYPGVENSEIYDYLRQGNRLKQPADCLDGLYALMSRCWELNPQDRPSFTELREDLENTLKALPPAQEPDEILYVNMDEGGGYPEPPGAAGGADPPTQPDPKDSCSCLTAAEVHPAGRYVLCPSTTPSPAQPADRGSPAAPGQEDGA

Regarding isotype control (Example 5) (antibody), the AKT phosphorylation in H1299 cells without Gas6; APC-A Geometric mean; p-AKT APC + isotype control turned out to be 4380, the AKT phosphorylation in H1299 cells without Gas6; Median: APC-A; p-AKT APC + isotype control was 4430, the ERK phosphorylation in H1299 cells without Gas6; APC-A Geometric mean; p-ERK A647 + isotype control was 965 and the ERK phosphorylation in H1299 cells without Gas6; Median: APC-A; p-ERK A647 + isotype control worked out at 274. The Gas6 induced AKT phosphorylation in H1299 cells; APC-A Geometric mean; p-AKT APC + isotype control + Gas6 is 8380, the Gas6 induced AKT phosphorylation in H1299 cells; Median: APC-A; p-AKT APC + isotype control + Gas6 was found to be 9120, the Gas6 induced ERK phosphorylation in H1299 cells; APC-A Geometric mean; p-ERK A647 + isotype control + Gas6 came to 1320 and the Gas6 induced ERK phosphorylation in H1299 cells; Median: APC-A; p-ERK A647 + isotype control + Gas6 came out at 1020.
